From patent publication US20210155689A1 (SHANGHAI PHARMAEXPLORER, published 2021)

Key:
[1] = target: LAG-3-hFc protein (human LAG-3 extracellular region with hFc tag) (human) (UniProt P18627); assay: ELISA, inhibition of LSECtin-His binding to coated LAG-3-hFc, antibody 0.320 nM, replicate 2
[2] = target: human LAG-3 on cells (HEK293-hLAG-3 stable cell line) (human) (UniProt P18627); assay: FACS, HEK293-hLAG-3, antibody 0.013 nM
[3] = target: LAG-3-hFc protein (human LAG-3 extracellular region with hFc tag) (human) (UniProt P18627); assay: FACS, inhibition of LAG-3-hFc binding to MHC II on Raji cells, antibody 0.823 nM
[4] = target: human LAG-3 on cells (HEK293-hLAG-3 stable cell line) (human) (UniProt P18627); assay: FACS, HEK293-hLAG-3, antibody 0.064 nM
[5] = target: human LAG-3 on cells (HEK293-hLAG-3 stable cell line) (human) (UniProt P18627); assay: FACS, HEK293-hLAG-3, antibody 0.32 nM
[6] = target: LAG-3-hFc protein (human LAG-3 extracellular region with hFc tag) (human) (UniProt P18627); assay: FACS, inhibition of LAG-3-hFc binding to MHC II on Raji cells, antibody 0.274 nM
[7] = target: LAG-3-hFc protein (human LAG-3 extracellular region with hFc tag) (human) (UniProt P18627); assay: ELISA, inhibition of LSECtin-His binding to coated LAG-3-hFc, antibody 200.000 nM, replicate 2
[8] = target: human LAG-3 on cells (HEK293-hLAG-3 stable cell line) (human) (UniProt P18627); assay: FACS, HEK293-hLAG-3, antibody 8.000 nM
[9] = target: monkey LAG-3 on cells (HEK293-cLAG-3 stable cell line) (monkey); assay: FACS, HEK293-cLAG-3, antibody 40.000 nM
[10] = target: LAG-3-hFc protein (human LAG-3 extracellular region with hFc tag) (human) (UniProt P18627); assay: ELISA, inhibition of LSECtin-His binding to coated LAG-3-hFc, antibody 0.013 nM, replicate 2
[11] = target: monkey LAG-3 on cells (HEK293-cLAG-3 stable cell line) (monkey); assay: FACS, HEK293-cLAG-3, antibody 0.320 nM
[12] = target: human LAG-3 on cells (HEK293-hLAG-3 stable cell line) (human) (UniProt P18627); assay: cell-based or functional assay
[13] = target: human LAG-3 on cells (HEK293-hLAG-3 stable cell line) (human) (UniProt P18627); assay: FACS, HEK293-hLAG-3, antibody 1.6 nM
[14] = target: LAG-3-hFc protein (human LAG-3 extracellular region with hFc tag) (human) (UniProt P18627); assay: FACS, inhibition of LAG-3-hFc binding to MHC II on Raji cells, antibody 0.000 nM
[15] = target: LAG-3-hFc protein (human LAG-3 extracellular region with hFc tag) (human) (UniProt P18627); assay: ELISA, inhibition of LSECtin-His binding to coated LAG-3-hFc, antibody 0.064 nM, replicate 2
[16] = target: T1, human LAG-3 on cells (HEK293-hLAG-3 stable cell line) (human, UniProt P18627 23-525); assay: FACS, HEK293-hLAG-3, antibody 8 nM
T1 sequence: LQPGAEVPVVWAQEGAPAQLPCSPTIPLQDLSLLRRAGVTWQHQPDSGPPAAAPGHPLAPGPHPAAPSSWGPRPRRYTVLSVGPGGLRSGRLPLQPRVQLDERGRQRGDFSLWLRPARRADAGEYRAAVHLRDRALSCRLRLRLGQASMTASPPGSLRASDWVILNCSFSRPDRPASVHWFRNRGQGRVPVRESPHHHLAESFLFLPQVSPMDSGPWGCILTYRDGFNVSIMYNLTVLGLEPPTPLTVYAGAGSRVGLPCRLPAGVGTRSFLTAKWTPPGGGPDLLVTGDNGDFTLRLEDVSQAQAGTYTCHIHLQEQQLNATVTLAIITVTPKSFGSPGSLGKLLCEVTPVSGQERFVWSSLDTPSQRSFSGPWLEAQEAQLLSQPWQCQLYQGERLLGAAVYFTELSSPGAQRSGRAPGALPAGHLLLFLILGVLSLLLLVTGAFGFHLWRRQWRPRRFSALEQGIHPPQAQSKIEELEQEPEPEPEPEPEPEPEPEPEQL

[17] = target: T1, human LAG-3 on cells (HEK293-hLAG-3 …); assay: FACS, HEK293-hLAG-3, antibody 0 nM
[18] = target: T1, human LAG-3 on cells (HEK293-hLAG-3 …); assay: FACS, HEK293-hLAG-3, antibody 0.32 nM
[19] = target: T1, human LAG-3 on cells (HEK293-hLAG-3 …); assay: FACS, HEK293-hLAG-3, antibody 40 nM
[20] = target: T1, human LAG-3 on cells (HEK293-hLAG-3 …); assay: FACS, HEK293-hLAG-3, antibody 0.064 nM
Text: A. The binding of antibodies to LAG-3 expressing cells was detected by Flow cytometry (FACS), wherein the method was according to that of Example 5.

Sequence of monkey LAG-3 on cells (HEK293-cLAG-3 stable cell line) (monkey) (P18627 other isoform, or with tags, fused parts or gaps limits assumed): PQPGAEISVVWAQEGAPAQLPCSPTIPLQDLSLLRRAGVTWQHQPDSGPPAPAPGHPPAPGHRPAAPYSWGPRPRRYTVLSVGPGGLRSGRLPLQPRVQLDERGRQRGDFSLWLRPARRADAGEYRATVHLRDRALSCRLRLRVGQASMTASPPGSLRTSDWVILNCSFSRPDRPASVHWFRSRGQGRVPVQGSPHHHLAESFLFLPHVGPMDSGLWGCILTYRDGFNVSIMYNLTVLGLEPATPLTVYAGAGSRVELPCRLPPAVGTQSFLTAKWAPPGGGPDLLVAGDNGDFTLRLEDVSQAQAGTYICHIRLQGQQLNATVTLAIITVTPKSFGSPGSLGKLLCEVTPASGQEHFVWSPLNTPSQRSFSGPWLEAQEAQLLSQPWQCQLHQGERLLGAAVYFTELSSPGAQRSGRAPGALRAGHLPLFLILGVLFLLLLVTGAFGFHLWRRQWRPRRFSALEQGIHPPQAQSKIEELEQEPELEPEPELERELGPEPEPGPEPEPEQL

hIgG control (antibody)
Inhibition rate (%) [1]: -10.1%
Mean fluorescence intensity [2]: 4
Inhibition rate (%) [3]: 10.2%
Mean fluorescence intensity [4]: 3.1
Mean fluorescence intensity [5]: 4
Inhibition rate (%) [6]: 8.1%
Inhibition rate (%) [7]: -2.2%
Mean fluorescence intensity [8]: 3
Mean fluorescence intensity [9]: 2.88
Inhibition rate (%) [10]: -15.7%
Mean fluorescence intensity [11]: 3.13
IL-2 production, SEB-dependent PBMC stimulation test, 0.0032 ug/ml, N = 1 [12]: 1620 pg/mL
IL-2 production, SEB-dependent PBMC stimulation test, 0.0032 ug/ml, N = 2 [12]: 1590 pg/mL
IL-2 production, SEB-dependent PBMC stimulation test, 0.016 ug/ml, N = 1 [12]: 1220 pg/mL
IL-2 production, SEB-dependent PBMC stimulation test, 0.016 ug/ml, N = 2 [12]: 1660 pg/mL
IL-2 production, SEB-dependent PBMC stimulation test, 0.08 ug/ml, N = 1 [12]: 1020 pg/mL
IL-2 production, SEB-dependent PBMC stimulation test, 0.08 ug/ml, N = 2 [12]: 1650 pg/mL
IL-2 production, SEB-dependent PBMC stimulation test, 0.4 ug/ml, N = 1 [12]: 1060 pg/mL
IL-2 production, SEB-dependent PBMC stimulation test, 0.4 ug/ml, N = 2 [12]: 1680 pg/mL
IL-2 production, SEB-dependent PBMC stimulation test, 2 ug/ml, N = 1 [12]: 1130 pg/mL
IL-2 production, SEB-dependent PBMC stimulation test, 2 ug/ml, N = 2 [12]: 1630 pg/mL
IL-2 production, SEB-dependent PBMC stimulation test, 10 ug/ml, N = 1 [12]: 1280 pg/mL
IL-2 production, SEB-dependent PBMC stimulation test, 10 ug/ml, N = 2 [12]: 1490 pg/mL
IL-2 production, antigen-specific T lymphocyte stimulation test, 0.016 ug/ml, N = 1 [12]: 336 pg/mL
IL-2 production, antigen-specific T lymphocyte stimulation test, 0.016 ug/ml, N = 2 [12]: 298 pg/mL
IL-2 production, antigen-specific T lymphocyte stimulation test, 0.08 ug/ml, N = 1 [12]: 286 pg/mL
IL-2 production, antigen-specific T lymphocyte stimulation test, 0.08 ug/ml, N = 2 [12]: 282 pg/mL
IL-2 production, antigen-specific T lymphocyte stimulation test, 0.4 ug/ml, N = 1 [12]: 322 pg/mL
IL-2 production, antigen-specific T lymphocyte stimulation test, 0.4 ug/ml, N = 2 [12]: 286 pg/mL
IL-2 production, antigen-specific T lymphocyte stimulation test, 2 ug/ml, N = 1 [12]: 382 pg/mL
IL-2 production, antigen-specific T lymphocyte stimulation test, 2 ug/ml, N = 2 [12]: 317 pg/mL
IL-2 production, antigen-specific T lymphocyte stimulation test, 10 ug/ml, N = 1 [12]: 338 pg/mL
IL-2 production, antigen-specific T lymphocyte stimulation test, 10 ug/ml, N = 2 [12]: 277 pg/mL
Mean fluorescence intensity [13]: 4
Inhibition rate (%) [14]: 17.7%
Inhibition rate (%) [15]: -11.2%

B1: 556F6B8 mouse-human chimeric antibody (antibody, V domains shown)
VH: RVQLKQSGPGLVQPSQSLSITCTVSGFSLIKYGVHWVRQSPGEGLEWLGVIWRGGITDYNAAFMSRLSITKDNSKSQVFFKMNSLQADDTAIYYCAKWDGPLAMDYWGQGTSVTVSS
VL: DIVMTQSHKFLSTSVGDRVSITCKASQDVGTTVAWYQQKPGQSPKLLIYWASTRHTGVPDRFTGSGSGTDFTLTISNVQSEDLADYFCQQYSSYPYTFGGGTKLEIK
notes: also called mAb123-556F6B8; 556F8B8
Mean fluorescence intensity [16]: 90
Mean fluorescence intensity [17]: 4
Mean fluorescence intensity [18]: 29
Mean fluorescence intensity [19]: 96

B2: 405B8H3 mouse-human chimeric antibody (antibody, V domains shown)
VH: QVQLQQSGAELVRPGASVTLSCKASGYTFTDYEMHWVKQTPVHGLEWIGATDPETGNSAYNQKFKGKAIMTADKSSSTAYMELRSLTSEDSAVYYCISTGWNDWGQGTSLTVSS
VL: DIKMTQSPSSMYASLGERVTITCKASQDINSYLSWFQQKPGKSPKTLIYRADRLLDGVPSRFSGSGSGQDYSLTISSLEYGDMGIYYCLQYDEFPYTFGGGTKLEIK
notes: also called mAb103-405B8H3
Mean fluorescence intensity [20]: 19
